From patent publication US20220389106A1 (University of Texas, published 2022)

T1: recombinant hu-EphA10 Fc chimera protein [the extracellular domain (Glu34-Ala565)] (human, UniProt Q5JZY3 34-565)
T1 construct: range 34-565; Purified from 293T cells; also called hu-EphA10 Fc protein; not shown: Fc part of the chimera
T1 sequence (looked up): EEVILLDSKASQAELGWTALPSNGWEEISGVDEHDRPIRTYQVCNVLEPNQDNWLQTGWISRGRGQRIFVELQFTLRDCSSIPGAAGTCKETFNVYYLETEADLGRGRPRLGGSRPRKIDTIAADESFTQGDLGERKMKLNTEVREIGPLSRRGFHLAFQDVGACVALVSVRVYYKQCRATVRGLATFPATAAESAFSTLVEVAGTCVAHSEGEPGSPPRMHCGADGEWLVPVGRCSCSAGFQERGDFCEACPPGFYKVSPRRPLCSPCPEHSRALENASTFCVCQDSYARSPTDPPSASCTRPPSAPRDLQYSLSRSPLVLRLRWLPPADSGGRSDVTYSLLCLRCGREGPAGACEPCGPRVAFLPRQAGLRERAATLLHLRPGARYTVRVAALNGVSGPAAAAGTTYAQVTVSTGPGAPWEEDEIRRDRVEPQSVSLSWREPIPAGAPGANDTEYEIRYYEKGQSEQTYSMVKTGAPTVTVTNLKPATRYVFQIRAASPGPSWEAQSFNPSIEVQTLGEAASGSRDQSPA

B1: anti-hu-EphA10 antibody Clone 8 (antibody, IgG1, V domains shown)
VH: QVQLQQSGPELVKPGPLVKISCKASGYTFTSYDITWVKQRPGQGLEWIGWIYPGDGSTKYNEKFKGKATLTADKSSSTAYMQLSSLTSENSAVYFCARGGRLPYFDYWGQGTTLTVSS
VL: NIVLTQSPASLAVSLGQRATISCRASESVDSYGNSFMHWYQQKPGQPPKLLIYLASNLESAVPARFSGSGSRTDFTLTIDPVEADDAATYYCQQNNEYPWTFGGGTKLEIK
B2: anti-hu-EphA10 antibody Clone 9 (antibody, IgG1, V domains shown)
VH: QVQLQQSGAELMKPGASVKISCKATGYTFSTYWIEWVKQRPGHGLEWIGEILPGSGRTNYKEKFKDKATFTANTSSTTAYMQLSSLTSEDSAVYYCAIDWYWGQGTTLTVSS
VL: QIVLTQSPAIMSASPGEKVTITCSASSSVSYMYWFQQKPGTSPKLWIYSTSNLASGVPARFSGSGSGTSYSLTISRMEAEDAATYYCQQRNSYPPTFGGGTKLEIK
notes: also called anti-EphA10 (clone 9); anti-EphA10 (clone 9)-pHrodo
B3: anti-hu-EphA10 antibody Clone 4 (antibody, IgG1, V domains shown)
VH: EVKLEESGGGLVQPGGSMKLSCVASGFTFSYYWMNWVRQSPEKGLEWVAEIRLKSNNYATHYAESVKGRFTISRDDSKSSVYLQMNNLRAEDSGIYYCTFYYGSSAWFAYWGQGTLVTVSA
VL: DIQMTQSPASLSASVGETVTITCRASENIYSYLAWYQQKQGKSPQLLVYNVKTLTEGVPSRFSGSGSGTQFSLKIDSLQPEDFGSYYCQHHYVTPPTFGAGTKLELK

molecular target: T1, recombinant hu-EphA10 Fc chimera …; experiment: ELISA screening (FIG. 1C)

Row | binding result | Binder
1 | binds | B1
2 | binds | B2
3 | binds | B3
